US20070178098A1 (Merck KGaA, published 2007)

What was measured:
human IL-6 [1] = biological target: T1, human IL-6 (human, UniProt P05231 30-212); assay: Biacore, antibody immobilized on chip, IL-6 passed over
T1 construct: The Biacore text says only 'IL-6 protein'; also called interleukin-6; IL-6 protein
Description: The antibodies were immobilized on a chip; IL-6 protein was passed over the chip, and on-rates and off-rates were measured.

human IL-6 [2] = biological target: T1, human IL-6; assay: plate binding assay read as OD450, antibody titrated on IL6 (form of the coated IL-6 not given for this figure)
human IL-6Ralpha = biological target: T2, human IL-6Ralpha (human, UniProt P08887 20-358, limits assumed); assay: plate binding assay read as OD450, antibody titrated on IL6Ralpha alone
T2 construct: also called IL-6Ralpha alone
T2 sequence (looked up): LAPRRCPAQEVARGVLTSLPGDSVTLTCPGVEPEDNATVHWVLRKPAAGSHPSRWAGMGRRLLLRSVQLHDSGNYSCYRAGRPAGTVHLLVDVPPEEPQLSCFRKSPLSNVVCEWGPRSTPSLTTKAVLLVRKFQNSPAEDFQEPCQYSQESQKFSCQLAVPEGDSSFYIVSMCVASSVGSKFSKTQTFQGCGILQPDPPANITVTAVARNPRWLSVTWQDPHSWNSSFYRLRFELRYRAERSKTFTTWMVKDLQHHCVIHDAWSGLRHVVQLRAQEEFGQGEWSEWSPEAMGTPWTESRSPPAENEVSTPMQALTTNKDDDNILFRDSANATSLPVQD

Fc-IL6Ralpha-IL6 [3] = biological target: T3, Fc-IL6Ralpha-IL6 (human IL-6Ralpha and IL-6; mouse Fc); assay: competition assay: antibody titrated, inhibition of the binding of Fc-IL6Ralpha-IL6 to gp130-Fc; half of the antibody's own maximal inhibition
T3 construct: Fusion of a mouse IgG gamma2a Fc, the extracellular domains of human IL-6Ralpha and human IL-6; also called Fc-IL6Ralpha-IL6 fusion protein; muFc-IL6Ralpha-IL6
Description: To further characterize the antibodies that recognize IL-6, the following competition tests were performed. First, the ability of the monoclonal antibodies to inhibit the interaction between Fc-IL6Ralpha-IL6 and gp130-Fc was tested. The inhibition assays were performed based on the methods described by Scheller et al. J. Immuno. Methods, 291:93-100 (2004), the teachings of which are hereby incorporated by reference. […] Second, inhibition of the interaction between Fc-IL6 and Fc-IL6Ralpha by the antibodies was tested.

Fc-IL6 = biological target: T4, Fc-IL6 (human IL-6; mouse Fc); assay: binding to immobilized Fc-IL6 (screen of paragraph 73)
T4 construct: also called Mature Fc-IL6
T4 chain: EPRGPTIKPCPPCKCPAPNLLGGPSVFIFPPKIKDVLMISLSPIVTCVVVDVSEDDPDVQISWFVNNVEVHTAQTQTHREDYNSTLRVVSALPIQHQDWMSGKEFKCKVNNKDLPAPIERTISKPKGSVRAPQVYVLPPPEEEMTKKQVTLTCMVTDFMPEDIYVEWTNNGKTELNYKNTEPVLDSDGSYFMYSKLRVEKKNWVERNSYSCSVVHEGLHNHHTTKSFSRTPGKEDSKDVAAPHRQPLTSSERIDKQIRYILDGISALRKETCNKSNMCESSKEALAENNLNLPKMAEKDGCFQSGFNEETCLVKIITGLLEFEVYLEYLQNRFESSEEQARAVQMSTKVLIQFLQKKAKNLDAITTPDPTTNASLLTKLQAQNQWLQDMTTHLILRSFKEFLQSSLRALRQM

Fc-IL6Ralpha-IL6 [4] = biological target: T3, Fc-IL6Ralpha-IL6; assay: plate binding assay read as OD450, antibody titrated on Fc-IL6Ralpha-IL6
Fc-IL6Ralpha-IL6 [5] = biological target: T3, Fc-IL6Ralpha-IL6; assay: cell-based or functional assay

B1: Mab#476 (antibody, V domains shown)
VH: EVKLEESGGGLVQPGGSMKLSCAASGFTFSDAWMDWVRQSPEKGLEWVAEIRSKANNHATYYAESVKGRFTISRDDSKSSVYLQMNSLRAEDTGIYYCTTPTLYGAMDYWGQGTSVTVSA
VL: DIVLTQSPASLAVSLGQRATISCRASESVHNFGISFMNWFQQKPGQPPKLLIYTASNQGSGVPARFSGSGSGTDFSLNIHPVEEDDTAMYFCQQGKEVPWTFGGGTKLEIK
notes: Mouse IgG monoclonal from a hybridoma; V regions were amplified with primers specific for mouse IgG gamma1 VH and Vk; also called antibody 476
Kd (human IL-6 [1]): 47 to 106 pM | koff (human IL-6 [1]): 0.00012 to 0.00026 s⁻¹ | kon (human IL-6 [1]): 2.5e+06 to 2.6e+06 M⁻¹ s⁻¹ | EC50 (read off the curve) (human IL-6 [2]): ~5 ng/mL | binding result (human IL-6Ralpha): no binding (tested: 1 ug/ml) | IC50 (read off the curve) (Fc-IL6Ralpha-IL6 [3]): ~200 ng/mL | binding result (Fc-IL6): binds | EC50 (read off the curve) (Fc-IL6Ralpha-IL6 [4]): ~6 ng/mL

B2: Mab#195 (antibody, V domains shown)
VH: EVKLEESGGGLVQPGGSMKLSCVASGFTFSNYWMNWVRQSPEKGLEWVAEIRLKSNNYATHYAESVKGRFTISRDDSKSSVYLQMNNLRAEDTGIYYCTREDYYGYPDYWGQGTTLTVSS
VL: not shown
notes: Mouse IgG monoclonal from a hybridoma; V regions were amplified with primers specific for mouse IgG gamma1 VH and Vk; also called antibody 195
Kd (human IL-6 [1]): 2000 pM | koff (human IL-6 [1]): 0.0048 s⁻¹ | kon (human IL-6 [1]): 2.4e+06 M⁻¹ s⁻¹ | EC50 (read off the curve) (human IL-6 [2]): ~4 ng/mL | binding result (human IL-6Ralpha): no binding (tested: 1 ug/ml) | IC50 (read off the curve) (Fc-IL6Ralpha-IL6 [3]): ~100 ng/mL | binding result (Fc-IL6): binds | EC50 (read off the curve) (Fc-IL6Ralpha-IL6 [4]): ~4 ng/mL

B3: Mab#309 (antibody, V domains shown)
VH: EVKLEESGGGLVQPGGSMKLSCVASGFTFSNYWMNWVRQSPEKGLEWVAEIRLKSNKGATHYAESVKGRFTISRDDSKSSVYLQMNNLRAEDTGIYYCASLLYDGYLHWGQGTLVTVSA
VL: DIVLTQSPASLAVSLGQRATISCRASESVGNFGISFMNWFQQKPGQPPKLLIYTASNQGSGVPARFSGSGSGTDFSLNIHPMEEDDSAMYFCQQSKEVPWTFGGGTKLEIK
notes: Mouse IgG monoclonal from a hybridoma; V regions were amplified with primers specific for mouse IgG gamma1 VH and Vk; also called antibody 309
Kd (human IL-6 [1]): 135 pM | koff (human IL-6 [1]): 0.00011 s⁻¹ | kon (human IL-6 [1]): 800000 M⁻¹ s⁻¹ | EC50 (read off the curve) (human IL-6 [2]): ~3 ng/mL | binding result (human IL-6Ralpha): no binding (tested: 1 ug/ml) | IC50 (read off the curve) (Fc-IL6Ralpha-IL6 [3]): ~200 ng/mL | binding result (Fc-IL6): binds | EC50 (read off the curve) (Fc-IL6Ralpha-IL6 [4]): ~3 ng/mL

B4: Mab#471 (antibody, V domains shown)
VH: EVKFEESGGGLVQPGGSMKLSCVASGFSFSNYWMNWVRQSPEKGLEWVAEIRLTSNKQAIYYAESVKGRFTISRDDSKSSVYLQMNNLRAEDTGIYYCASLFYDGYLHWGQGTLVTVSA
VL: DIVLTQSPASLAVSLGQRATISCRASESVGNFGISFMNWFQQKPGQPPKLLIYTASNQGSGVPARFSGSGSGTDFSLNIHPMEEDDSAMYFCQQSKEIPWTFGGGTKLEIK
notes: Mouse IgG monoclonal from a hybridoma; V regions were amplified with primers specific for mouse IgG gamma1 VH and Vk
Kd (human IL-6 [1]): 7.5 pM | koff (human IL-6 [1]): 1.4e-05 s⁻¹ | kon (human IL-6 [1]): 1.8e+06 M⁻¹ s⁻¹ | EC50 (read off the curve) (human IL-6 [2]): ~5 ng/mL | binding result (human IL-6Ralpha): no binding (tested: 1 ug/ml) | IC50 (read off the curve) (Fc-IL6Ralpha-IL6 [3]): ~200 ng/mL | binding result (Fc-IL6): binds | haptoglobin level in mice given muFc-IL6Ralpha-IL6, relative to the positive control group at 24 hours (Fc-IL6Ralpha-IL6 [5]): ~30% | EC50 (read off the curve) (Fc-IL6Ralpha-IL6 [4]): ~3 ng/mL
